{"source": "paper PMC11707362", "about": "“Endothelial-secreted Endocan activates PDGFRA and regulates vascularity and spatial phenotype in glioblastoma” (Nature Communications, 2025)", "key": {"[1]": {"biological_target": "T1, Fc-tagged recombinant PDGFRA monomeric fragment (human, UniProt P16234 24-528)", "T1 construct": "PDGFRA (platelet-derived growth factor receptor alpha), human, recombinant 'monomeric fragment'; also called Fc-PDGFRA monomeric fragment; Fc-tagged rPDGFRA; source: bought: R&D", "test": "SPR; Biacore T200, CM5 chip, amine coupling, hPDGFRA immobilised, Endocan as analyte; HBS-EP (0.15 M NaCl, 3 mM EDTA, 0.005% P20, 0.01 M Hepes pH 7.4), 30 ul/min; KD = koff/kon at five concentrations; repeated with 1 and 10 ug/ml heparin without effect", "details": "both partners purified"}, "[2]": {"biological_target": "T2, Fc-tagged recombinant PDGFRA monomeric fragment (human, UniProt P16234 24-528)", "T2 chain": "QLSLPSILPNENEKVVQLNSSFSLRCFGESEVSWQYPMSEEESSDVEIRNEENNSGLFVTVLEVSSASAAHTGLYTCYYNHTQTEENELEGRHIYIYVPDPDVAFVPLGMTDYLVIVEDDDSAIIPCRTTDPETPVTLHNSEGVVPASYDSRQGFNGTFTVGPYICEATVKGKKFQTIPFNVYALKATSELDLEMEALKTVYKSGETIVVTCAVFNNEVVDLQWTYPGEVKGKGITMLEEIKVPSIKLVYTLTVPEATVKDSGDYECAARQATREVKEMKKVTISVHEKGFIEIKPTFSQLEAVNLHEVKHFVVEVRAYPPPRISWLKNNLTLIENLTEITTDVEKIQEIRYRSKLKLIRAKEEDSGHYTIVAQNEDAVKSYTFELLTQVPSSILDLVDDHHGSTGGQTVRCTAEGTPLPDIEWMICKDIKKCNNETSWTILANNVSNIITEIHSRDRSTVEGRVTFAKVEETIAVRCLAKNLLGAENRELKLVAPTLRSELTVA", "test": "SPR"}}, "data": [{"binder": "recombinant His-tagged Endocan (ligand, UniProt Q9NQ30 20-184, looked up, Endocan (ESM1 gene product), recombinant; the introduction describes the mature polypeptide as 165 amino acids; also called rEndocan; His6-Endocan; source: bought: R&D) WSNNYAVDCPQHCDSSECKSSPRCKRTVLDDCGCCRVCAAGRGETCYRTVSGMDGMKCGPGLRCQPSNGEDPFGEEFGICKDCPYGTFGMDCRETCNCQSGICDRGTGKCLKFPFFQYSVTKSSNRFVSLTEHDMASGDGNIVREEVVKENAAGSPVMRKWLNPR", "values": [{"measurement": "Kd", "setting": "[1]", "value": 345, "unit": "nM"}, {"measurement": "koff", "setting": "[2]", "value": 0.045, "unit": "s⁻¹"}]}]}
